Assay results published in paper PMC11907993, “Rare but specific: 5-bp composite motifs define SMAD binding in BMP signaling”.

Key:
SMAD3 MH1 [1] = target: T1, SMAD3 MH1 (human (Fig. 1/3 legends), UniProt P84022 10-136); test: EMSA; EMSA: 7.5 nM Cy5-dsDNA, 200 mM Tris pH 7.2, 100 mM NaCl, 2 mM TCEP, 15 min on ice; 6% PAGE in TG buffer, 4 °C; Hill fit, n = 2; details: protein: recombinant; tags: N-terminal His tag cleaved (TEV or 3C); chain copies: 2; label: 5'-Cy5
SMAD3 MH1 [2] = target: T1, SMAD3 MH1; test: EMSA; similar to sense SBE; EMSA: 7.5 nM Cy5-dsDNA, 200 mM Tris pH 7.2, 100 mM NaCl, 2 mM TCEP, 15 min on ice; 6% PAGE in TG buffer, 4 °C; Hill fit, n = 2; details: protein: recombinant; tags: N-terminal His tag cleaved (TEV or 3C); chain copies: 2; label: 5'-Cy5
SMAD3 MH1 [3] = target: T1, SMAD3 MH1; test: EMSA; Hill h = 1.80 ± 0.23; double binding; EMSA: 7.5 nM Cy5-dsDNA, 200 mM Tris pH 7.2, 100 mM NaCl, 2 mM TCEP, 15 min on ice; 6% PAGE in TG buffer, 4 °C; Hill fit, n = 2; details: protein: recombinant; tags: N-terminal His tag cleaved (TEV or 3C); chain copies: 2; label: 5'-Cy5
SMAD4 MH1 = SMAD4 MH1 (human (Fig. 1 legend), UniProt Q13485 18-142); test: EMSA; EMSA: 7.5 nM Cy5-dsDNA, 200 mM Tris pH 7.2, 100 mM NaCl, 2 mM TCEP, 15 min on ice; 6% PAGE in TG buffer, 4 °C; Hill fit, n = 2; details: protein: recombinant; tags: N-terminal His tag cleaved (TEV or 3C); label: 5'-Cy5
Sequence of SMAD4 MH1 (Q13485 18-142): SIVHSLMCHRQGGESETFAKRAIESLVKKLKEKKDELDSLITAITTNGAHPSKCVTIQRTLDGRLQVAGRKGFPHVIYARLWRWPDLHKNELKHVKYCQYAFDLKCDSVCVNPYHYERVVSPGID

T1 sequence (P84022 10-136): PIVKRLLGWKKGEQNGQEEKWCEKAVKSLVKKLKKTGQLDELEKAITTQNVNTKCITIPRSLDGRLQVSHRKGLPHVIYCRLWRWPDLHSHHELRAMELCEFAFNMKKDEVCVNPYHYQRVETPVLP

B1: pGC-SBE/SBE heterocomposite, sense SBE (dsDNA)
DNA 1: ATATGGCGCCAACTTGTCTGATATA
DNA 2: TATATCAGACAAGTTGGCGCCATAT
B1: binds (SMAD3 MH1 [1]).

B2: pGC-SBE/SBE heterocomposite, inverted SBE (dsDNA)
DNA 1: ATATAGTCTGAACTTGGCGCCATAT
DNA 2: ATATGGCGCCAAGTTCAGACTATAT
B2: binds (SMAD3 MH1 [2]).

B3: pGC-SBE+ (dsDNA)
DNA 1: ATATGGCGCCATAT
DNA 2: ATATGGCGCCATAT
B3 was tested, and the Kd (SMAD3 MH1 [3]) was 293 ± 32 nM and the Kd (SMAD4 MH1) was 886 ± 274 nM.

B4: npGC-SBE+ (dsDNA)
DNA 1: ATATGGCTCCATAT
DNA 2: ATATGGAGCCATAT
B4 was tested, and the Kd (SMAD3 MH1 [1]) was 660 ± 280 nM and the Kd (SMAD4 MH1) was 1340 ± 744 nM.

B5: SBE+ (dsDNA)
DNA 1: ATATGTCTGATAT
DNA 2: ATATCAGACATAT
B5 was tested, and the Kd (SMAD3 MH1 [1]) was 366 ± 29 nM and the Kd (SMAD4 MH1) was 919 ± 70 nM.
